In patent US20080119640A1:
“And” between values parts separate entries of the source, which are not always exact repeats. Identical values can stand only once.

Molecular target: T1, IFNα receptor 2 (IFNAR2) on THP-1 cells (human) (UniProt P48551)
T1 sequence (looked up): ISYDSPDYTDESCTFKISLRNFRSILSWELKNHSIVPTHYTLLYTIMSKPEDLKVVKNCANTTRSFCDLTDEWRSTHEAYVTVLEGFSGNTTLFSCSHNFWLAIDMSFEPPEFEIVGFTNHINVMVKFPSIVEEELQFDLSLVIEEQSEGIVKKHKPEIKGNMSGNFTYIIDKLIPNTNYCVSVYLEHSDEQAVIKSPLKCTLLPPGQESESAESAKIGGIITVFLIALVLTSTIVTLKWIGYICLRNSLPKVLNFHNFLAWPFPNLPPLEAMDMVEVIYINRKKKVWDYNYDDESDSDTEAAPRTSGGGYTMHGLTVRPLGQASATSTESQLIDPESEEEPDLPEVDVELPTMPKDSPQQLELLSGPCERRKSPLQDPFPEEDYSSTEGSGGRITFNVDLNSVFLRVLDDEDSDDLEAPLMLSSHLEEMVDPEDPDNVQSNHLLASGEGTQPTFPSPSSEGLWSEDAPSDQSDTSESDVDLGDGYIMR
Test: cell-based or functional assay

Substance | pSTAT1 % (PEGASYS fixed as 100%) | pSTAT1 EC50 (pM)
6His E41pAF-30K PEG (from UniProt P01563 24-188) (ligand) | 25.2% | 120 pM
6His E107pAF-30K PEG (from UniProt P01563 24-188) (ligand) | 22.3% and 7.27% | 
6His F27pAF-30K PEG (from UniProt P01563 24-188) (ligand) | 66% | 316 pM
6His F38L (from UniProt P01563 24-188) (ligand) | 2.72% | 13 pM
6His F38S (from UniProt P01563 24-188) (ligand) | 3.76% | 
6His G37pAF (from UniProt P01563 24-188) (ligand) | 4.55% | 21.8 pM
6His G37pAF-30K PEG (from UniProt P01563 24-188) (ligand) | 40.3% | 193 pM
6His H34pAF (from UniProt P01563 24-188) (ligand) | 25% | 
6His H34pAF-30K PEG (from UniProt P01563 24-188) (ligand) | 33.6% | 161 pM
6His K31pAF-30K PEG (from UniProt P01563 24-188) (ligand) | 62.5% | 
6His K134pAF-30K PEG (from UniProt P01563 24-188) (ligand) | 22.5% | 
6His N45pAF-30K PEG (from UniProt P01563 24-188) (ligand) | 18.2% | 
6His N65pAF-30K PEG (from UniProt P01563 24-188) (ligand) | > 532% | > 2860 pM
6His R125pAF-30K PEG (from UniProt P01563 24-188) (ligand) | 47% | 225 pM
6His T106pAF-30K PEG (from UniProt P01563 24-188) (ligand) | 28.4% | 
6HisC1G/C98 IFNα-2a + limitin loop (from UniProt P01563 25-188) (ligand) | 6.27% and 7.27% | 30 pM and 34.8 pM

More lines, now with the values ahead:

pSTAT1 % (PEGASYS fixed as 100%) | pSTAT1 EC50 (pM) | Substance
3.97% | 19 pM | 6His E41pAF (from UniProt P01563 24-188) (ligand)
6.43% | 30.8 pM | 6His E107pAF (from UniProt P01563 24-188) (ligand)
54.7% | 262 pM | 6His E113pAF-30K PEG (from UniProt P01563 24-188) (ligand)
10.2% |  | 6His K31pAF (from UniProt P01563 24-188) (ligand)
27.8% | 133 pM | 6His L110pAF-30K PEG (from UniProt P01563 24-188) (ligand)
50.6% | 242 pM | 6His L117pAF-30K PEG (from UniProt P01563 24-188) (ligand)
52.9% | 253 pM | 6His P39pAF-30K PEG (from UniProt P01563 24-188) (ligand)
138% | 660 pM | 6His R12pAF-30K PEG (from UniProt P01563 24-188) (ligand)
100% | 479 pM | PEGASYS® (Peginterferon alfa-2a) (from UniProt P01563 24-188) (ligand)
